Consider 37 substances from the supplement of paper PMC5998384.

The test system of data set [1] is HeLa Kyoto. The data set is described as follows: melting temperature (median over replicates), in situ; higher = more thermally stable.
Data set [2] deals with HeLa Kyoto. The data set is described as follows: thermal stability score vs G1/S (z-score of summed log2 fold changes over temperatures); higher = more thermally stable than in G1/S.
For data set [3], the system named is HeLa Kyoto. The data set is described as follows: solubility change mitosis vs G1/S (difference of NP-40 vs SDS log2 ratios) (log2 ratio difference); higher = more soluble in mitosis.
The mark [4] stands for this setting: cell cycle stage: early G1 (4.5 h after nocodazole release).
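Throughout, for melting temperature (median over replicates), in situ: HeLa Kyoto cells synchronized by double thymidine or nocodazole block, proteins quantified by TMT10plex mass spectrometry, three independent biological replicates.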
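Throughout, for solubility change mitosis vs G1/S (difference of NP-40 vs SDS log2 ratios): synchronized HeLa Kyoto cells (double thymidine block for G1/S, nocodazole release for mitosis), protein amounts in NP-40 versus SDS lysates quantified by mass spectrometry, three biological replicates.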
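Throughout, for thermal stability score vs G1/S (z-score of summed log2 fold changes over temperatures): synchronized HeLa Kyoto cells, proteins quantified by TMT10plex mass spectrometry, three biological replicates, mitosis taken 0.5 h after nocodazole release, G1/S directly after double thymidine block.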

As for “MSEKSVEAAAELSAKDLKEKKEKVEEKASRKERKKEVVEEEENGAEEEEEETAEDGEEEDEGEEEDEEEEEEDDEGPALKRAAEEEDEADPKRQKTENGASA [PTMS]”, the values for the melting temperature in the data set with HeLa Kyoto [1] (cell cycle stage: G1/S) and with HeLa Kyoto [1] (cell cycle stage: mitosis) were 55.5 °C and 51.9 °C, respectively. Moreover, the thermal stability score with HeLa Kyoto [2] (setting [4]) is -1.16; in the data set with HeLa Kyoto [2] (cell cycle stage: mitosis) it was -2.62. For “MSRLLPLLRSRTARSLRPGPAAAAAPRPPSWCCCGRGLLALAPPGGLPGGPRRLGTHPKKEPMEALNTAQGARDFIYSLHSTERSCLLKELHRFESIAIAQEKLEAPPPTPGQLRYVFIHNAIPFIGFGFLDNAIMIVAGTHIEMSIGIILGISTMAAAALGNLVSDLAGLGLAGYVEALASRLGLSIPDLTPKQVDMWQTRLSTHLGKAVGVTIGCILGMFPLIFFGGGEEDEKLETKS [TMEM65]”, the figures for the melting temperature in the data set on HeLa Kyoto [1] (cell cycle stage: G1/S) and in the data set on HeLa Kyoto [1] (cell cycle stage: mitosis) were 55.5 °C and 55.9 °C, respectively. The thermal stability score in the data set with HeLa Kyoto [2] (setting [4]) came to 0.563; in the data set with HeLa Kyoto [2] (cell cycle stage: mitosis) it was 0.332. With “MTSALENYINRTVAVITSDGRMIVGTLKGFDQTINLILDESHERVFSSSQGVEQVVLGLYIVRGDNVAVIGEIDEETDSALDLGNIRAEPLNSVAH [LSM8]”, the melting temperature came to 57.1 °C in the data set with HeLa Kyoto [1] (cell cycle stage: G1/S) and 57.5 °C in the data set on HeLa Kyoto [1] (cell cycle stage: mitosis). The figures for the thermal stability score with HeLa Kyoto [2] (setting [4]) and in the data set on HeLa Kyoto [2] (cell cycle stage: mitosis) were -1.46 and -3.54, respectively. “MVAPVWYLVAAALLVGFILFLTRSRGRAASAGQEPLHNEELAGAGRVAQPGPLEPEEPRAGGRPRRRRDLGSRLQAQRRAQRVAWAEADENEEEAVILAQEEEGVEKPAETHLSGKIGAKKLRKLEEKQARKAQREAEEAEREERKRLESQREAEWKKEEERLRLEEEQKEEEERKAREEQAQREHEEYLKLKEAFVVEEEGVGETMTEEQSQSFLTEFINYIKQSKVVLLEDLASQVGLRTQDTINRIQDLLAEGTITGVIDDRGKFIYITPEELAAVANFIRQRGRVSIAELAQASNSLIAWGRESPAQAPA [DDRGK1]”: the melting temperature with HeLa Kyoto [1] (cell cycle stage: G1/S) and in the data set with HeLa Kyoto [1] (cell cycle stage: mitosis) was 52.9 °C throughout. Further, the thermal stability score in the data set on HeLa Kyoto [2] (setting [4]) was -0.767; in the data set with HeLa Kyoto [2] (cell cycle stage: mitosis), -0.701. Take “MVPGAAGWCCLVLWLPACVAAHGFRIHDYLYFQVLSPGDIRYIFTATPAKDFGGIFHTRYEQIHLVPAEPPEACGELSNGFFIQDQIALVERGGCSFLSKTRVVQEHGGRAVIISDNAVDNDSFYVEMIQDSTQRTADIPALFLLGRDGYMIRRSLEQHGLPWAIISIPVNVTSIPTFELLQPPWTFW [PRADC1]”: the figures for the melting temperature in the data set with HeLa Kyoto [1] (cell cycle stage: G1/S) and in the data set on HeLa Kyoto [1] (cell cycle stage: mitosis) were 53.8 °C and 52.7 °C, respectively. Also, the values for the thermal stability score in the data set on HeLa Kyoto [2] (setting [4]) and in the data set on HeLa Kyoto [2] (cell cycle stage: mitosis) were -2.33 and -2.03, respectively.

For the substance “MWRWIRQQLGFDPPHQSDTRTIYVANRFPQNGLYTPQKFIDNRIISSKYTVWNFVPKNLFEQFRRVANFYFLIIFLVQLMIDTPTSPVTSGLPLFFVITVTAIKQGYEDWLRHNSDNEVNGAPVYVVRSGGLVKTRSKNIRVGDIVRIAKDEIFPADLVLLSSDRLDGSCHVTTASLDGETNLKTHVAVPETALLQTVANLDTLVAVIECQQPEADLYRFMGRMIITQQMEEIVRPLGPESLLLRGARLKNTKEIFGVAVYTGMETKMALNYKSKSQKRSAVEKSMNTFLIIYLVILISEAVISTILKYTWQAEEKWDEPWYNQKTEHQRNSSKILRFISDFLAFLVLYNFIIPISLYVTVEMQKFLGSFFIGWDLDLYHEESDQKAQVNTSDLNEELGQVEYVFTDKTGTLTENEMQFRECSINGMKYQEINGRLVPEGPTPDSSEGNLSYLSSLSHLNNLSHLTTSSSFRTSPENETELIKEHDLFFKAVSLCHTVQISNVQTDCTGDGPWQSNLAPSQLEYYASSPDEKALVEAAARIGIVFIGNSEETMEVKTLGKLERYKLLHILEFDSDRRRMSVIVQAPSGEKLLFAKGAESSILPKCIGGEIEKTRIHVDEFALKGLRTLCIAYRKFTSKEYEEIDKRIFEARTALQQREEKLAAVFQFIEKDLILLGATAVEDRLQDKVRETIEALRMAGIKVWVLTGDKHETAVSVSLSCGHFHRTMNILELINQKSDSECAEQLRQLARRITEDHVIQHGLVVDGTSLSLALREHEKLFMEVCRNCSAVLCCRMAPLQKAKVIRLIKISPEKPITLAVGDGANDVSMIQEAHVGIGIMGKEGRQAARNSDYAIARFKFLSKLLFVHGHFYYIRIATLVQYFFYKNVCFITPQFLYQFYCLFSQQTLYDSVYLTLYNICFTSLPILIYSLLEQHVDPHVLQNKPTLYRDISKNRLLSIKTFLYWTILGFSHAFIFFFGSYLLIGKDTSLLGNGQMFGNWTFGTLVFTVMVITVTVKMALETHFWTWINHLVTWGSIIFYFVFSLFYGGILWPFLGSQNMYFVFIQLLSSGSAWFAIILMVVTCLFLDIIKKVFDRHLHPTSTEKAQLTETNAGIKCLDSMCCFPEGEAACASVGRMLERVIGRCSPTHISRSWSASDPFYTNDRSILTLSTMDSSTC [ATP11B]”, the melting temperature in the data set on HeLa Kyoto [1] (cell cycle stage: G1/S) turned out to be 57.4 °C; with HeLa Kyoto [1] (cell cycle stage: mitosis) it was 55.5 °C. In addition, the thermal stability score is -2.25 with HeLa Kyoto [2] (setting [4]) and -0.924 in the data set on HeLa Kyoto [2] (cell cycle stage: mitosis). As to NCK1, the “solubility change mitosis (log2)” value in the data set on HeLa Kyoto [3] was -0.221. Turning to NCKIPSD, the “solubility change mitosis (log2)” value in the data set on HeLa Kyoto [3] is -0.148. In the case of NT5C3A, the “solubility change mitosis (log2)” value in the data set on HeLa Kyoto [3] was -0.0945. On to NUDT1, for which, in the data set with HeLa Kyoto [3], the “solubility change mitosis (log2)” value was -0.22. On to POLB, for which the “solubility change mitosis (log2)” value with HeLa Kyoto [3] was -0.0195. POLR2B: the “solubility change mitosis (log2)” value in the data set on HeLa Kyoto [3] was 0.175. On to POLR2E, for which the “solubility change mitosis (log2)” value in the data set with HeLa Kyoto [3] came out at 0.311. Consider PTCD3, for which, in the data set with HeLa Kyoto [3], the “solubility change mitosis (log2)” value was -0.182.

RAC1: in the data set with HeLa Kyoto [3], the “solubility change mitosis (log2)” value is -0.0656. RPL4: in the data set on HeLa Kyoto [3], the “solubility change mitosis (log2)” value turned out to be 0.805.

As to RPL13, in the data set on HeLa Kyoto [3], the “solubility change mitosis (log2)” value is 0.759. For the substance RPL23, the “solubility change mitosis (log2)” value in the data set with HeLa Kyoto [3] amounted to 0.476. As for RPL27, the “solubility change mitosis (log2)” value in the data set on HeLa Kyoto [3] turned out to be 0.573. Regarding RPL29, the “solubility change mitosis (log2)” value in the data set with HeLa Kyoto [3] is 1.68. In the case of RPL30, the “solubility change mitosis (log2)” value in the data set on HeLa Kyoto [3] is 0.776.

RPL32: the “solubility change mitosis (log2)” value with HeLa Kyoto [3] is 0.91. Same read-out and setting: the value for RPL35A was 0.707; that for RPL37 was 1.29. The same measure, in the same setting: the same measure for RPS3A: 0.538; for RPS4X: 0.489. Regarding RPS5, in the data set with HeLa Kyoto [3], the “solubility change mitosis (log2)” value stood at 0.452. Take RPS10: the “solubility change mitosis (log2)” value with HeLa Kyoto [3] came out at 0.59.

With RPS21, the “solubility change mitosis (log2)” value with HeLa Kyoto [3] was 0.45.

Regarding S100A6, the “solubility change mitosis (log2)” value in the data set on HeLa Kyoto [3] was determined as 0.893. With SARS, the “solubility change mitosis (log2)” value in the data set with HeLa Kyoto [3] is -0.0633. In the case of SLAIN2, the “solubility change mitosis (log2)” value with HeLa Kyoto [3] was -0.187.

In the case of SNX27, the “solubility change mitosis (log2)” value with HeLa Kyoto [3] was -0.11. Turning to TACO1, the “solubility change mitosis (log2)” value with HeLa Kyoto [3] was 0.0266. For the substance TMEM263, the “solubility change mitosis (log2)” value in the data set on HeLa Kyoto [3] amounted to 0.0364. As for TUFM, in the data set on HeLa Kyoto [3], the “solubility change mitosis (log2)” value was -0.0187. Regarding VPS35, in the data set on HeLa Kyoto [3], the “solubility change mitosis (log2)” value is -0.178.
